The target of assay [1] is acetylcholine receptor. Briefly: SPR, peptide at 10 uM.
The target in assay [2] is acetylcholine receptor. Briefly: SPR, AchR immobilized on chip, peptide 10 uM.

As to KEKGKR [6mer-2-1148], the Binding affinity in assay [1] was determined as 34 RU. Still for that read-out and setting: under KMNKKR [6mer-2-1140] stands 29 RU; under KMKMKK [6mer-2-1133], 22 RU. Take REWGRK [6mer-2-1146]: in assay [1], the Binding affinity worked out at 32 RU. In turn, RNNAKK [6mer-2-1105] showed a Binding affinity in assay [1] of 28 RU. In assay [1], KKKVRR [6mer-2-1108] displayed a Binding affinity of 36 RU. On to KAHFKK [6mer-2-1138], for which the Binding affinity in assay [1] is 42 RU. In assay [1], RTKMRR [6mer-2-1101] registered a Binding affinity of 38 RU.

As for RDAFKK [6mer-2-1125], in assay [1], the Binding affinity stood at 30 RU.

Consider REDWRR [6mer-2-1099], for which the Binding affinity in assay [1] amounted to 21 RU.

Consider KPSKRR [6mer-2-1121], for which, in assay [1], the Binding affinity worked out at 21 RU.

KGIQK [5mer-496]: the Binding affinity (RU) in assay [2] turned out to be 81 RU. For the molecule KACIKK [6mer-2-1143], the Binding affinity in assay [1] was determined as 42 RU. Take RASWRK [6mer-2-1112]: in assay [1], the Binding affinity was 26 RU. As for KAAEKK [6mer-2-1127], in assay [1], the Binding affinity was determined as 42 RU.

In assay [1], RITARR [6mer-2-1123] yielded a Binding affinity of 36 RU. Molecule KAKAKK [6mer-2-1139] came in with a Binding affinity in assay [1] of 39 RU. In the case of KEDMRK [6mer-2-1109], the Binding affinity in assay [1] turned out to be 26 RU. On the same count and under the same terms, in the case of RFDGRR [6mer-2-1118] it was 42 RU. Turning to KLISK [5mer-498], the Binding affinity (RU) in assay [2] came out at 53 RU. In the case of RITGKR [6mer-2-1129], in assay [1], the Binding affinity worked out at 42 RU. For the molecule KRRCR [5mer-497], in assay [2], the Binding affinity (RU) turned out to be 76 RU. The molecule RTDFKR [6mer-2-1137] came in with a Binding affinity in assay [1] of 22 RU. Molecule RANWKR [6mer-2-1135] had a Binding affinity in assay [1] of 29 RU. In assay [2], KSIRR [5mer-493] registered a Binding affinity (RU) of 57 RU. In turn, RMHVKR [6mer-2-1117] displayed a Binding affinity in assay [1] of 21 RU. In turn, RPWERR [6mer-2-1132] had a Binding affinity in assay [1] of 32 RU. For the molecule RIKNRR [6mer-2-1145], in assay [1], the Binding affinity stood at 23 RU. Take KWQSK [5mer-194]: the Binding affinity (RU) in assay [2] came out at 84 RU. In assay [1], RAHERK [6mer-2-1107] registered a Binding affinity of 29 RU.

The molecule KDKVKR [6mer-2-1106] returned a Binding affinity in assay [1] of 28 RU. Regarding RSRQK [5mer-197], the Binding affinity (RU) in assay [2] was 68 RU.

For KVVTK [5mer-495], in assay [2], the Binding affinity (RU) was 52 RU.

KVVSR [5mer-195]: in assay [2], the Binding affinity (RU) was 82 RU. In assay [2], RGFCK [5mer-494] registered a Binding affinity (RU) of 54 RU.

In assay [1], KTDVKK [6mer-2-1150] returned a Binding affinity of 42 RU. In assay [1], RYTKKR [6mer-2-1104] yielded a Binding affinity of 38 RU.

The molecule RKKFRK [6mer-2-1114] came in with a Binding affinity in assay [1] of 34 RU. Still for that read-out and setting: in the case of RDMMKK [6mer-2-1120] it was 28 RU; in that of RYPVRK [6mer-2-1151], 43 RU. For KMKKKR [6mer-2-1136], the Binding affinity in assay [1] was 36 RU. On the same count and under the same terms, in the case of KYENRK [6mer-2-1134] it was 30 RU; in that of RHSFRK [6mer-2-1130], 29 RU. Consider RNTNRK [6mer-2-1155], for which the Binding affinity in assay [1] was 25 RU.

With RCNFKK [6mer-2-1122], the Binding affinity in assay [1] was found to be 22 RU. Regarding KYSPRK [6mer-2-1115], in assay [1], the Binding affinity was determined as 39 RU. In assay [1], KHKGKR [6mer-2-1102] displayed a Binding affinity of 32 RU. Still for that read-out and setting: in the case of RYEARR [6mer-2-1154] it was 30 RU; in that of KHKPKR [6mer-2-1153], 27 RU. On to KCTGKR [6mer-2-1141], for which, in assay [1], the Binding affinity came out at 32 RU. On the same count and under the same terms, in the case of REDEKK [6mer-2-1111] it was 23 RU. In assay [2], KQIRR [5mer-491] registered a Binding affinity (RU) of 81 RU.

Consider KCTVRK [6mer-2-1119], for which, in assay [1], the Binding affinity was 39 RU. The same measure, in the same setting: under RHEVRR [6mer-2-1126] stands 23 RU. With RVVLR [5mer-492], the Binding affinity (RU) in assay [2] was found to be 80 RU. KKAMKR [6mer-2-1142]: the Binding affinity in assay [1] was determined as 30 RU. RFEDRK [6mer-2-1144] had a Binding affinity in assay [1] of 39 RU. Molecule RTAPKK [6mer-2-1100] displayed a Binding affinity in assay [1] of 24 RU. For the molecule RVIRK [5mer-193], the Binding affinity (RU) in assay [2] is 80 RU. In assay [1], RKTWRK [6mer-2-1124] returned a Binding affinity of 39 RU.

Turning to KLISR [5mer-198], in assay [2], the Binding affinity (RU) is 74 RU. RNWAKK [6mer-2-1152] gave a Binding affinity in assay [1] of 37 RU. Same read-out and setting: in the case of RMTKKK [6mer-2-1110] it was 37 RU. KSFRK [5mer-192] yielded a Binding affinity (RU) in assay [2] of 75 RU. For the molecule KPNFRK [6mer-2-1113], the Binding affinity in assay [1] is 43 RU. As to KIDFRR [6mer-2-1149], the Binding affinity in assay [1] was 21 RU. For RSYYR [5mer-196], the Binding affinity (RU) in assay [2] turned out to be 69 RU. In turn, KFMKKK [6mer-2-1147] displayed a Binding affinity in assay [1] of 35 RU. In assay [1], KNCMRK [6mer-2-1128] yielded a Binding affinity of 36 RU.

Take RDAWRK [6mer-2-1103]: the Binding affinity in assay [1] is 42 RU. For KMEVKK [6mer-2-1116], in assay [1], the Binding affinity was 31 RU. RTNAKR [6mer-2-1131] displayed a Binding affinity in assay [1] of 26 RU.

The values above are taken from patent US20250011363A1, “OPTIMIZED SHORTENED PEPTIDE THAT BINDS TO ACETYLCHOLINE RECEPTOR, AND USE THEREOF” (SKINMED CO., LTD., priority 2021, published 2025).
